Assay results as given in patent US20240228562A1, “NOVEL LIPOCALIN MUTEINS SPECIFIC FOR CONNECTIVE TISSUE GROWTH FACTOR (CTGF)” (PIERIS PHARMACEUTICALS GMBH, priority 2021, published 2024).

Key:
[1] = target: T1, Rat CTGF (Rattus norvegicus, UniProt Q9R1E9); assay: SPR binding kinetics and affinity, rat CTGF; conditions: 25° C., 1:1 binding model
T1 construct: purchased R&D Systems
T1 sequence (Q9R1E9 25-347): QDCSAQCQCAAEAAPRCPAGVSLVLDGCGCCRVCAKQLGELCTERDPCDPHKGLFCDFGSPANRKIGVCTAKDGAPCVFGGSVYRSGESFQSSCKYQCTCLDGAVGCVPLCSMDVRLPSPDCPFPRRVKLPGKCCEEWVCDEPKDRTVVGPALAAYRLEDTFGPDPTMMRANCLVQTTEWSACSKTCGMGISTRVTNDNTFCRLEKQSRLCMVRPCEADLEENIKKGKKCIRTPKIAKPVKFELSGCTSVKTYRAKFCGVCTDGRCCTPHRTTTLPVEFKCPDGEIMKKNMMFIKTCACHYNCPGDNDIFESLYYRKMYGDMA
Experimental: (§1) Surface plasmon resonance (SPR) was used to measure binding kinetics and affinity of the representative lipocalin muteins disclosed herein.
(§2) The binding of exemplary lipocalin muteins to human (Creative Biomart), cynomolgus, rat (R&D Systems) and mouse CTGF (Abbexa) was determined by SPR using a Biacore instrument (Cytiva, formerly GE Healthcare). Some targets were fused to a human IgG1 Fc tag, and captured via the anti-human IgG antibody kit, others were directly immobilized.
(§3) For some measurements, human CTGF with a human IgG1 Fc Tag or rat or murine CTGF without a tag were directly immobilized to a CM5 Chip. The carboxyl groups on the chip were activated using 1-ethyl-3-(3-dimethylaminopropyl)-carbodiimide (EDC) and N-hydroxysuccinimide (NHS). Subsequently, the targets at a concentration of 3-5 μg/mL in 10 mM sodium acetate (pH) 4.5 were applied at a flow rate of 10 μL/min until an immobilization level of 300-1100 resonance units was achieved. Residual non-reacted NHS-esters were blocked by passing a solution of 1 M ethanolamine across the surface. The reference channel was activated/deactivated. For the capture setting, targets with an IgG Fc Tag at 0.25-2.5 μg/mL in HBS-EP+ buffer were captured by the anti-human IgG-Fc antibody at the chip surface for 180 s at a flow rate of 10 μL/min.
(§4) The binding assay was carried out with a contact time of 180 s, a dissociation time of 900-3600 s and a flow rate of 30 μL/min. All measurements were performed at 25° C. […] For the directly immobilized targets, the same regeneration conditions were used. Prior to the protein measurements, three startup cycles were performed for conditioning purposes. Data were evaluated with Biacore Evaluation software. Double referencing was used and the 1:1 binding model was used to fit the raw data.
(§5) The values determined for kon, koff and the resulting equilibrium dissociation constant (KD) for exemplary lipocalin muteins are summarized in Table 4.

[2] = system: bleomycin-induced lung fibrosis; assay: Bleomycin mouse model of lung fibrosis; format: in vivo; conditions: day 14 after bleomycin
Experimental: The anti-fibrotic activity of lipocalin muteins upon local delivery to the lung was evaluated in vivo using a mouse model of bleomycin-induced lung fibrosis. Bleomycin is a DNA damaging agent, also used in cancer therapy, which induces a severe damage of the lung epithelium upon delivery to the lungs of rodents. The injury causes a strong inflammatory response in the lungs which in turn triggers fibrotic response. The peak of fibrotic remodeling, usually observed between day 14 and 21 after bleomycin challenge, is characterized by an excessive deposition of extracellular matrix and destruction of alveolar lung structures. Here, approximately 9 weeks old, male C57BL/6N mice were challenged with bleomycin at a dose of 1 mg/kg or saline as a control via the intranasal route. Animals were treated daily with lipocalin muteins at a dose of 5 mg/kg or PBS as a vehicle control via local delivery to the lungs from day 0 to day 13 after bleomycin challenge. […] Animals were sacrificed at day 14 after bleomycin challenge and level of lung fibrosis was analyzed in formalin fixed, paraffin embedded lung tissues by histopathological evaluation using the Ashcroft score (Matsuse modification) and quantitative digital analysis of IHC detected Collagen1a1 protein deposition.
For determination of the Ashcroft score lung tissue slides were stained according to the Crossman's Trichrome method (Gray, Peter (1954) The Microtomist's Formulary and Guide. Blakiston, New York, 1954). The whole pulmonary area subjected for histopathological analysis was evaluated at ten low magnification fields and total score for each animal was calculated as a mean (Ashcroft et al., Journal of clinical pathology 41.4 (1988): 467-470; Matsuse, T., et al. European Respiratory Journal 13.1 (1999): 71-77.). […]
Collagen1a1 (Col1a1) deposition was analyzed by immunohistochemistry as a second measure for fibrotic lung remodeling. […] Stained tissue slides were evaluated for Col1a1 deposition by digital image analysis using the morphometry protocol (CaloPix software, TRIBVN). […]

[3] = system: cynomolgus CTGF; assay: SPR binding kinetics and affinity, cynomolgus CTGF; conditions: 25° C., 1:1 binding model
cynomolgus CTGF, sequence (as listed by the source): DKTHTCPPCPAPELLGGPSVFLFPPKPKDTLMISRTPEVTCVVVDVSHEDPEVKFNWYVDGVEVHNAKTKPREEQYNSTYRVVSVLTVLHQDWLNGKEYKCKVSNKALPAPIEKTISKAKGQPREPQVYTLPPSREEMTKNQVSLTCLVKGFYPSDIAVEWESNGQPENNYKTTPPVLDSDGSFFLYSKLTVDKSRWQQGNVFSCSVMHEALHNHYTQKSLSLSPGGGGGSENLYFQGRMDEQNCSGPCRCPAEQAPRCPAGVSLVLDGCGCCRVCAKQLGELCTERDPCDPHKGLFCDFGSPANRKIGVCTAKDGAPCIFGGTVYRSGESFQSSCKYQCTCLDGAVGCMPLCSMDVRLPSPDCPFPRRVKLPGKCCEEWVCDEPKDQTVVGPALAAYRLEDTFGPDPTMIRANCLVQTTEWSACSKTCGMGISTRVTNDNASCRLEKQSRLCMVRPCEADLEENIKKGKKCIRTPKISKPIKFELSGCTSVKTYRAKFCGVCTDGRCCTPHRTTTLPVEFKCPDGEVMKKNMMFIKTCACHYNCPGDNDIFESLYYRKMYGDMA
Experimental: as §1, §2, §3, §4, §5

[4] = Thermal stability assessment by nanoDSC; format: physicochemical; conditions: 1 mg/mL in PBS, scan 25-100° C. at 1° C./min
How it was run: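 CTGF-specific lipocalin muteins at 1 mg/mL in PBS scanned from 25 to 100° C at 1° C/min by capillary nano-DSC. Where several transitions occur, the Tm of the major unfolding event is reported, along with onset temperature. Some muteins were expressed in E. coli, others in CHO cells.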

[5] = target: T2, Murine CTGF (Mus musculus, UniProt P29268); assay: SPR binding kinetics and affinity, murine CTGF; conditions: 25° C., 1:1 binding model
T2 construct: purchased Abbexa
T2 sequence (P29268 26-348): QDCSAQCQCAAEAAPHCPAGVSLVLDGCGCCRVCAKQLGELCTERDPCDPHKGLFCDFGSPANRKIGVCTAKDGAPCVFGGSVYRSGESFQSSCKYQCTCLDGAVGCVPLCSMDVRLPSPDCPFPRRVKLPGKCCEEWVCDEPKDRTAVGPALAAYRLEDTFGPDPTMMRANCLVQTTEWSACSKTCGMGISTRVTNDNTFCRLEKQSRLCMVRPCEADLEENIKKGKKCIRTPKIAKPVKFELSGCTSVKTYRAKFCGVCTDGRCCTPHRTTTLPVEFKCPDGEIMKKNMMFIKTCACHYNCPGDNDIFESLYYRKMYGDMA
How it was run: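 Targets either amine-coupled to CM5 chip (300–1100 RU; Fc-tagged human, untagged rat/murine) or Fc-captured via anti-human IgG; muteins injected 180 s contact, 900–3600 s dissociation, 30 μL/min, 25° C. Double-referenced sensorgrams fit to 1:1 model giving kon, koff and KD.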

[6] = target: T3, human CTGF (Homo sapiens, UniProt P29279); assay: SPR binding kinetics and affinity, human CTGF; conditions: 25° C., 1:1 binding model
T3 construct: purchased Creative Biomart
T3 sequence (P29279 with tags, fused parts or gaps H83D): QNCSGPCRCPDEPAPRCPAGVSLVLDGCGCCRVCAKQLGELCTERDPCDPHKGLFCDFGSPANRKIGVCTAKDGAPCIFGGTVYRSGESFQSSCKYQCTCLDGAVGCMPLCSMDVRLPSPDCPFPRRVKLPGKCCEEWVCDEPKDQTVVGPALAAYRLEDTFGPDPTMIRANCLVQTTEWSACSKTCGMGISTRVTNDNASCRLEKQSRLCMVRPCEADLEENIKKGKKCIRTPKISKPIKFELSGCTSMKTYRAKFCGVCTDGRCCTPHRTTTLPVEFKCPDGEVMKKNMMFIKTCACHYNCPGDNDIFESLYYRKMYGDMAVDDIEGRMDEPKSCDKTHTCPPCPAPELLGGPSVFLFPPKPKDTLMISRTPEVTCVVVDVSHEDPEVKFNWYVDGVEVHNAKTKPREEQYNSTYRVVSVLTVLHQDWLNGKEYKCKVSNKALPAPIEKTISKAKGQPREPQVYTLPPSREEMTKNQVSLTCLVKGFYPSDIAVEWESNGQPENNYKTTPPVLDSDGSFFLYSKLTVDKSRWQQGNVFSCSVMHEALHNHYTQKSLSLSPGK
How it was run: (§6)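 Biacore SPR at 25 °C; CTGF either Fc-captured via anti-human IgG (HBS-EP+) or amine-coupled to CM5 (300–1100 RU). Muteins injected 180 s contact, 900–3600 s dissociation, 30 μL/min.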

[7] = target: T4, human CTGF (Homo sapiens, UniProt P29279, H83D); assay: SPR binding kinetics and affinity, human CTGF; conditions: 25° C., 1:1 binding model
T4 construct: purchased Creative Biomart
T4 sequence (P29279 with tags, fused parts or gaps H83D): as above
How it was run: as §6

[8] = mutein 5 mg/kg daily to lung, antibody 10 mg/kg every other day intravenous

Rat CTGF koff [1]: 3.51e-05 s⁻¹
Rat CTGF kon [1]: 138000 M⁻¹ s⁻¹
cynomolgus CTGF koff [3]: 2.63e-05 s⁻¹
cynomolgus CTGF kon [3]: 195000 M⁻¹ s⁻¹
Murine CTGF koff [5]: 1.16e-05 s⁻¹
Murine CTGF kon [5]: 299000 M⁻¹ s⁻¹
human CTGF koff [6]: 1.41e-05 s⁻¹
human CTGF kon [7]: 157000 M⁻¹ s⁻¹
B1: SEQ ID NO: 24: optimized CTGF-binding hNGAL lipocalin mutein (protein)
chain: QDSTSDLIPAPPLSKVPLQQNFQDNQFQGKWYVVGVAGNAILRTDKQPAKMFATIYELKEDKSYDVTSVRFEAKSCKYTIKTFVPGSQPGEFTAGNIKSAPGQTSTLVRVVSTNYNQHAMVFFKHVSQNREIFVITLYGRTKELTSELKENFIRFSKSLGLPENHIVFPVPIDQCIDG
modifications: lipocalin mutein
Reduction of Ashcroft score vs mean of vehicle-treated animals ([2]; mutein 5 mg/kg daily local lung delivery day 0-13): 14.1%
Effect on Ashcroft score [2, 8]: significantly decreased the Ashcroft score
Reduction of Col1a1 positive lung surface area vs mean of vehicle controls [2, 8]: 25.2%
ONSET MELTING [4]: 58 °C
TM ([4]; major transition): 72 °C
